{"source": "paper PMC7093598", "key": {"[1]": {"molecular_target": "titin N2A construct(s), number of N2A-Us elements not stated for the experiment (human) (UniProt Q8WZ42)"}, "[2]": {"molecular_target": "titin N2A construct(s), number of N2A-Us elements not stated for the experiment (human) (UniProt Q8WZ42)", "remark": "listed apart in the source"}}}
{"substance": "CARP (Cardiac Ankyrin Repeat Protein) 106-319, N-terminally truncated construct corresponding to the titin-binding region (from UniProt Q15327 106-319) (domain or fragment)", "values": [{"measurement": "increase of the Ig domain unfolding force (F unfold, force peaks 1-4) with CARP, AFM force-extension curves at 400 nm/s", "setting": "[1]", "result": 20, "unit": "pN"}, {"measurement": "unfolding rate constant α0 of the Ig domains in the absence of applied force with CARP, from the Bell fit of the force clamp data", "setting": "[2]", "result": 0.43, "unit": "s⁻¹"}, {"measurement": "unfolding rate α of the Ig domains with CARP, AFM force clamp at clamp forces of 100-150 pN; value printed at 100 pN (3.2 s^-1 without CARP)", "setting": "[2]", "result": 2.4, "unit": "s⁻¹"}]}
